In patent US20240018502A1:
Substitutions are numbered along the chain they refer to. Names may count otherwise. Each block holds one binder with its values, some of them ahead of it.

Target: plasma purified human complement protein C3 (human) (UniProt P01024)
Test: cell-based or functional assay

Chain of plasma purified human complement protein C3 (human) (P01024 23-667, chain 1 of 2): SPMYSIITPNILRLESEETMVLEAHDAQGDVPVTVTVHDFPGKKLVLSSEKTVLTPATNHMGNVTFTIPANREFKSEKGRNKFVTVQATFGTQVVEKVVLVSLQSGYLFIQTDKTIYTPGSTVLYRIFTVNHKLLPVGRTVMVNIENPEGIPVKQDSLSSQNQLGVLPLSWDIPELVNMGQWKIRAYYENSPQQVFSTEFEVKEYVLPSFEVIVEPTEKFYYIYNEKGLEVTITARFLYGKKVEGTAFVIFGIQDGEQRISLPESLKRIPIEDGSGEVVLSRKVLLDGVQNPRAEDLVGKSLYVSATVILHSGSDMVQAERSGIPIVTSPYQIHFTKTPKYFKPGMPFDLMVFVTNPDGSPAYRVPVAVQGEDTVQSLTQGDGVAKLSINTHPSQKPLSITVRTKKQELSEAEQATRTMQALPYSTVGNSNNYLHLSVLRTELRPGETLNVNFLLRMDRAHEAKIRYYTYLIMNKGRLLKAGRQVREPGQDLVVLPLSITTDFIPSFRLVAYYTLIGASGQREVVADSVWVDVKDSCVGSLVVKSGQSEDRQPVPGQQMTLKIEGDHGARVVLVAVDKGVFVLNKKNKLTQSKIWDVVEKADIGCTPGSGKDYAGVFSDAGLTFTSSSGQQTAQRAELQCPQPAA
Chain of plasma purified human complement protein C3 (human) (P01024 672-1663, chain 2 of 2): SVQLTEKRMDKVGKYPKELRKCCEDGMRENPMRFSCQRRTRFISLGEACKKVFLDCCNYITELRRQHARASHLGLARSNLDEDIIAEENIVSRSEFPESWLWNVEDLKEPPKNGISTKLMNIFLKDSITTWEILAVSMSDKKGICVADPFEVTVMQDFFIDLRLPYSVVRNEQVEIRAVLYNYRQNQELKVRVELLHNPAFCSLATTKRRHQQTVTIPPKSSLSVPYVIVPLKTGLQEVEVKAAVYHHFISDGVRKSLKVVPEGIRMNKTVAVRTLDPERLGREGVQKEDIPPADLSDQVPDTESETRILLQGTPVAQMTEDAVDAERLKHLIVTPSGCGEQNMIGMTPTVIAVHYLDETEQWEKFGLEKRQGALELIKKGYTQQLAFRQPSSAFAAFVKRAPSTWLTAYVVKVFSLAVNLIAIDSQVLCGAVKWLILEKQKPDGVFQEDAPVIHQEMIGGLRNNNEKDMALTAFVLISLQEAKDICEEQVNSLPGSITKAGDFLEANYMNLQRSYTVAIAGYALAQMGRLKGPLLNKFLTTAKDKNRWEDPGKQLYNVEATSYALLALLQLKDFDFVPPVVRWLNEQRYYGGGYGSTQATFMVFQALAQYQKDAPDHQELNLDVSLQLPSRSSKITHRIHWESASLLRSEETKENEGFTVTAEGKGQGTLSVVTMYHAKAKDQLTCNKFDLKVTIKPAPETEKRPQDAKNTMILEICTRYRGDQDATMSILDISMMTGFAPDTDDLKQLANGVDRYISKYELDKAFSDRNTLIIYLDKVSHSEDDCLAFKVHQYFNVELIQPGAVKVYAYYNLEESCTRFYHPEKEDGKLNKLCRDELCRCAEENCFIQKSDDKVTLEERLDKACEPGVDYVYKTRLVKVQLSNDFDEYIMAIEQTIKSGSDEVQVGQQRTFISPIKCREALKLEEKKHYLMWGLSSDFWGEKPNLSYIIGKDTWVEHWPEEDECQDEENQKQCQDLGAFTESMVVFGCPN

B1: MTSP-1 Q38E/I41S/D60bT/F60eR/F97T/ins97aE/T98G/F99L/C122S/Q175L/Q192V (enzyme)
chain: VVGGTDADEGEWPWQVSLHALGEGHSCGASLISPNWLVSAAHCYIDTRGRRYSDPTQWTAFLGLHDQSQRSAPGVQERRLKRIISHPFFNDTEGLDYDIALLELEKPAEYSSMVRPISLPDASHVFPAGKAIWVTGWGHTQYGGTGALILQKGEIRVINQTTCENLLPQLITPRMMCVGFLSGGVDSCVGDSGGPLSSVEADGRIFQAGVVSWGDGCAQRNKPGVYTRLPLFRDWIKENTGV
EC50 of hC3 cleavage: 32.7 nM

B2: MTSP-1 Q38E/I41S/D60bV/F60eK/Y60gW/ins97aE/F97T/T98G/F99L/C122S/G151H/Q175L/Q192D (enzyme)
chain: B1 chain with T47V, R50K, Y52W, G146H, V189D
EC50 of hC3 cleavage: 22.9 nM

B4: MTSP-1 Q38E/I41V/D60bF/F60eK/Y60gF/F97T/ins97aE/T98G/F99L/C122S/Q175L/Q192G (enzyme)
chain: B1 chain with S26V, T47F, R50K, Y52F, V189G
EC50 of hC3 cleavage: 14.2 nM

B5: MTSP-1 Q38H/I41A/D60bV/F60eH/ins97aE/F97T/T98G/F99L/C122S/Q175L/Q192D (enzyme)
chain: B1 chain with E23H, S26A, T47V, R50H, V189D
EC50 of hC3 cleavage: 5.31 nM

B6: MTSP-1 Q38H/I41A/D60bT/F60eK/ins97aE/F97T/T98G/F99L/C122S/Q175L/Q192E (enzyme)
chain: B1 chain with E23H, S26A, R50K, V189E
EC50 of hC3 cleavage: 14.6 nM

B8: MTSP-1 Q38H/I41S/D60bA/F60eV/ins97aE/F97T/T98G/F99L/C122S/Q175L/Q192E/Q209L (enzyme)
chain: B1 chain with E23H, T47A, R50V, V189E, Q207L
EC50 of hC3 cleavage: 16.9 nM

B10: MTSP-1 Q38H/I41S/D60bT/F60eS/Y60gW/ins97aV/F97D/T98P/F99L/C122S/G151H/Q175L/Q192V (enzyme)
chain: B1 chain with E23H, R50S, Y52W, T92D, E93V, G94P, G146H
EC50 of hC3 cleavage: 7.43 nM

B11: MTSP-1 Q38H/I41A/D60bV/F60eA/Y60gW/F97T/ins97aE/T98G/F99L/C122S/Q175L/Q192V (enzyme)
chain: B1 chain with E23H, S26A, T47V, R50A, Y52W
EC50 of hC3 cleavage: 1.57 nM

B12: MTSP-1 Q38H2I/I41S/F97T/ins97aE/T98G/F99L/C122S/Q175L/Q192V (enzyme)
chain: B1 chain with E23K, T47D, R50F
EC50 of hC3 cleavage: 43 nM

B14: MTSP-1 Q38H/I41S/D60bT/F60eS/Y60gW/ins97aV/F97D/T98P/F99L/C122S/G151H/Q175L/Q192D (enzyme)
chain: B1 chain with E23H, R50S, Y52W, T92D, E93V, G94P, G146H, V189D
EC50 of hC3 cleavage: 12.6 nM

B15: MTSP-1 Q38H/I41S/D60bT/F60eS/Y60gW/ins97aV/F97D/T98P/F99L/C122S/G151N/Q175A/Q192D (enzyme)
chain: B1 chain with E23H, R50S, Y52W, T92D, E93V, G94P, G146N, L170A, V189D
EC50 of hC3 cleavage: 22.5 nM

B16: MTSP-1 Q38H/I41A/F60eH/Y60gW/ins97aE/F97T/T98G/F99L/C122S/Q175L/Q192A (enzyme)
chain: B1 chain with E23H, S26A, T47D, R50H, Y52W, V189A
EC50 of hC3 cleavage: 3.09 nM

B17: MTSP-1 Q38H/I41A/D60bT/F60eR/F97T/ins97aE/T98G/F99L/C122S/Q175L/Q192V (enzyme)
chain: B1 chain with E23H, S26A
EC50 of hC3 cleavage: 6.54 nM

B18: MTSP-1 Q38H/I41A/D60bV/F60eR/ins97aE/F97T/T98G/F99L/C122S/G151N/Q175L/Q192D (enzyme)
chain: B1 chain with E23H, S26A, T47V, G146N, V189D
EC50 of hC3 cleavage: 6.06 nM

B20: MTSP-1 Q38H/H40P/I41A/F60eQ/Y60gW/F97T/ins97aE/T98G/F99L/C122S/Q175L/Q192D (enzyme)
chain: B1 chain with E23H, H25P, S26A, T47D, R50Q, Y52W, V189D
EC50 of hC3 cleavage: 5.04 nM

B21: MTSP-1 Q38H/I41S/D60bA/F60eV/ins97aE/F97T/T98G/F99L/C122S/Q175L/Q192V (enzyme)
chain: B1 chain with E23H, T47A, R50V
EC50 of hC3 cleavage: 10.9 nM

B24: MTSP-1 I41T/D60bH/ins97aV/F97D/T98P/F99L/C122S/Q192G/D217I (enzyme)
chain: B1 chain with E23Q, S26T, T47H, R50F, T92D, E93V, G94P, L170Q, V189G, D215I
EC50 of hC3 cleavage: 4.52 nM

Now from value to binder:

EC50 of hC3 cleavage: 26.2 nM
B3: MTSP-1 Q38R/I41T/D60bH/ins97aE/F97T/T98G/F99L/C122S/Q175L/Q192G (enzyme)
chain: B1 chain with E23R, S26T, T47H, R50F, V189G

EC50 of hC3 cleavage: 37.8 nM
B7: MTSP-1 Q38K/I41T/ins97aE/F97T/T98G/F99L/C122S/Q175L/Q192A (enzyme)
chain: B1 chain with E23K, S26T, T47D, R50F, V189A

EC50 of hC3 cleavage: 6.47 nM
B9: MTSP-1 Q38L/H40P/I41T/D60bV/F60eH/Y60gL/ins97aE/F97T/T98G/F99L/C122S/Q175L/Q192A (enzyme)
chain: B1 chain with E23L, H25P, S26T, T47V, R50H, Y52L, V189A

EC50 of hC3 cleavage: 20.2 nM
B13: MTSP-1 Q38H/I41S/D60bT/F60eS/ins97aV/F97D/T98P/F99L/C122S/G151H/Q175L/Q192V (enzyme)
chain: B1 chain with E23H, R50S, T92D, E93V, G94P, G146H

EC50 of hC3 cleavage: 6.78 nM
B19: MTSP-1 Q38H/I41S/D60bT/F60eS/Y60gW/ins97aV/F97D/T98P/F99L/C122S/G151N/Q175L/Q192E (enzyme)
chain: B1 chain with E23H, R50S, Y52W, T92D, E93V, G94P, G146N, V189E

EC50 of hC3 cleavage: 0.866 nM
B22: MTSP-1 ins97aA/F97G/T98L/C122S/Q175M/Q192A/D217I/K224R (enzyme)
chain: VVGGTDADEGEWPWQVSLHALGQGHICGASLISPNWLVSAAHCYIDDRGFRYSDPTQWTAFLGLHDQSQRSAPGVQERRLKRIISHPFFNDGALFDYDIALLELEKPAEYSSMVRPISLPDASHVFPAGKAIWVTGWGHTQYGGTGALILQKGEIRVINQTTCENLLPQMITPRMMCVGFLSGGVDSCAGDSGGPLSSVEADGRIFQAGVVSWGIGCAQRNRPGVYTRLPLFRDWIKENTGV

EC50 of hC3 cleavage: 6.67 nM
B23: MTSP-1 ins97aL/F97Q/T98G/F99L/C122S/Q175M/Q192S/D217I (enzyme)
chain: B22 chain with G92Q, A93L, L94G, F95L, A189S, R222K

EC50 of hC3 cleavage: 5.72 nM
B25: MTSP-1 ins97aY/F97H/F99L/C122S/Q175M/Q192A/D217V (enzyme)
chain: B22 chain with G92H, A93Y, L94T, F95L, I215V, R222K

EC50 of hC3 cleavage: 2.42 nM
B26: MTSP-1 ins97aY/F97G/T98V/C122S/Q175M/Q192S/D217V (enzyme)
chain: B22 chain with A93Y, L94V, A189S, I215V, R222K
